Test results from the supplement of paper PMC9170038.

What was measured:
Details in all cases: FMN input: 0 or 200 uM; Eterna round: R93 (includes R88 designs)
MS2 coat protein [1] = assay: apparent KD of MS2 coat protein, switch ON state; designed switch direction (-1 OFF switch, 1 ON switch): 1; higher = weaker reporter binding
Procedure, shortened: (§1)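 Binding of SNAP-549-labelled MS2 coat protein was measured on designed RNA switches transcribed on-chip from Illumina sequencing clusters. The protein rose in twofold steps from 0.7 or 1.5 nM to 3 µM, with 0.8–1.5 h per step early on and 10–20 min per step later, in 100 mM Tris-HCl pH 7.5, 80 mM KCl, 4 mM MgCl2, without or with constant ligand. Each design's apparent KD is the median of fits to its normalised cluster binding curves.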

MS2 coat protein [2] = assay: apparent KD of MS2 coat protein, switch OFF state (with FMN for OFF switches, without FMN for ON switches); designed switch direction (-1 OFF switch, 1 ON switch): 1; higher = weaker reporter binding
Procedure, shortened: as §1

MS2 coat protein [3] = assay: apparent KD of MS2 coat protein, switch ON state; designed switch direction (-1 OFF switch, 1 ON switch): -1; higher = weaker reporter binding
Procedure, shortened: as §1

MS2 coat protein [4] = assay: apparent KD of MS2 coat protein, switch OFF state (with FMN for OFF switches, without FMN for ON switches); designed switch direction (-1 OFF switch, 1 ON switch): -1; higher = weaker reporter binding
Procedure, shortened: as §1

| Sequence | apparent KD of MS2 coat protein (MS2 coat protein [1]) [µM] | apparent KD of MS2 coat protein (MS2 coat protein [2]) [µM] | apparent KD of MS2 coat protein (MS2 coat protein [3]) [µM] | apparent KD of MS2 coat protein (MS2 coat protein [4]) [µM] |
| --- | --- | --- | --- | --- |
| GAAAAACAUGAGGAUCACCCAUGUGAAAACUUGGGAGGAUAUACUAAGACGAAAGUCGAGGUAGAAGGCCUAAAAG [Same State 1.4i (Mat - Mod of Eli - )] | 0.0224 | 0.0741 | – | – |
| GAGAAACAUGAGGAUCACCCAUGUAGAAAUAUGGGAGGAUAUACAAAGACGAAAGUCAAAGUAGAAGGCCUAGAAG [77%, Mat - Mod of Eli - With 2 more G's] | 0.0219 | 0.0516 | – | – |
| AACAAUCUAUCUGAGGAUAUCAUGUAAAAGACAUGAGGAUCACCCAUGUUGCAGGAAACUGCUCAUGAGAAGGCAGAUAGAUUGA [SS2: 1125] | 0.0128 | 0.0138 | – | – |
| AACAAUCUAUCUGAGGAUAUCAUGUCAAAGACAUGAGGAUCACCCAUGUACCAGGAAACUGGAUAUGAGAAGGCAGAUAGAUUGA [SS2: 1119] | 0.0161 | 0.204 | – | – |
| GUAAGACAUGAGGAUCACCCAUGUAUGCGUCAGCAAGGAUAUGGGAAUAAAAGACAGAAACCAGAAGGUGCUGUUG [Enqudi] | 0.0261 | 0.153 | – | – |
| AGAAAUAAAAGGCAGGAUAUCCAAAAGAAAACAUGAGGAUCACCCAUGUAAAAGAAAAUAAAGUGGGAGAAGGGCCAAAAUAAAG [My design (73%) + Space bases] | 0.0117 | 0.0365 | – | – |
| AAAAAAAAAAGUCAGGAUAUACAAAUUUUUACAUGAGGAUCACCCAUGUUAAAGAAAAAAAAAAAGUAGAAGGGACAAAAAAAAAA [Same State 2 - Omei 2] | 0.0111 | 0.0154 | – | – |
| AAAAGACAUGAGGAUCACCCAUGUAAAAACAUAGGAGGAUAUGUCGUGAAAAAAGACUUGGCAGAAGGCCUAUGUC [SS1 - 44] | 0.0197 | 0.0307 | – | – |
| AAGAAACAUGAGGAUCACCCAUGUGAGAAUAUGGGAGGAUAUACAAGGACGUAAGUCAAGGUAGAAGGCCUAAGAA [Mat - Same State 1 - Meechl mod - D139] | 0.0258 | 0.2 | – | – |
| AUAAAUAAAAUCAAGGAUAUCCAAAAAAAAACAUGAGGAUCACCCAUGUAAAAGAAAAUAAAAUGGGAGAAGGUGAAAAAUAAAU [SS2 M 6] | 0.0394 | 0.068 | – | – |
| AAAUAAAUGACUAAGGAUAUAUUAGAGAAAACAUGAGGAUCACCCAUGUAAUAAUAAAAAGGGUGAUAGAAGGUAGUCAACAAAC [74%, More Paria 4] | 0.132 | 0.0488 | – | – |
| CAGAGACAUGAGGAUCACCCAUGUAGGAUUAUGGGAGGAUAUACAAAGACGAGAGUCAGAGUAGAAGGCCUAGGCC [salish99-ss1-145] | 0.0297 | 0.0432 | – | – |
| AAAAAAAAUGUGUAGGAUAUCAGUAAAAAUACAUGAGGAUCACCCAUGUUCAAAAAAAAAAAAACUGAGAAGGACACGGAUGGUCC [Design 1] | 0.0355 | 0.0426 | – | – |
| CAUCAUGCGCCUAAGGAUAUGUCUCACAAGACAUGAGGAUCACCCAUGUAGAAUAAAUAAACGAUGCAGAAGGUGGAGCGCAUGA [Cexeri] | 0.0402 | 0.222 | – | – |
| AAAGAAAAACUAGAGGAUAUCCGAGUGGUAACAUGAGGAUCACCCAUGUGAUGAAAGGAACAUGAGGAGAAGGCUAGAAGAAAAA [JL Nando mod 8] | 0.0144 | 0.257 | – | – |
| AAUAUACAUGAGGAUCACCCAUGUUUUGGUGGGUCAGGAUAUAAAAACAAUUACAUAAAGUUAGAAGGGACAAAUA [JR_SS001_Sub004] | 0.111 | 0.121 | – | – |
| AUAUAUAUAAGGAAGGAUAUCCAAAAAUAAACAUGAGGAUCACCCAUGUCCAUAAAGAAUAAAUGGGAGAAGGUCCAUAUAUAUA [77%, More Tesla, 9] | 0.0242 | 0.123 | – | – |
| AAAAGACAUGAGGAUCACCCAUGUCAAAAGACAUGAGGAUAUGUACAGACUUCGGUCUGUACAGAAGGCAUGAAAA [SS1 - 1066] | 0.0138 | 0.0236 | – | – |
| AAUAAACAUGAGGAUCACCCAUGUGGUGGCCCAUGAGGAUAUCCAUGUACAUUGUACACAGGAGAAGGCAUAGCCA [Tioredes] | 0.119 | 0.027 | – | – |

| Sequence | apparent KD of MS2 coat protein (MS2 coat protein [1]) [µM] | apparent KD of MS2 coat protein (MS2 coat protein [2]) [µM] | apparent KD of MS2 coat protein (MS2 coat protein [3]) [µM] | apparent KD of MS2 coat protein (MS2 coat protein [4]) [µM] |
| --- | --- | --- | --- | --- |
| AAUAAUUAUACGAAGGAUAUCGGUAAUUAGACAUGAGGAUCACCCAUGUAAUAUGGUUAAAUAUUCGAGAAGGUCGAGGGUGAAA [JR_SS002_Sub504] | 0.336 | 0.0294 | – | – |
| AAUAACCGAGGAUAUACAAAACUUGUGAUCUAGUGGAUUUUACAUGAGGAUCACCCAUGUAGAAGGCGGAAAAG [Veenquge] | – | – | 0.0613 | 0.212 |
| AAAAAACAUGAGGAUCACCCAUGUCAGGAUAUCCGGUUCAAAAAAAAAAAAAGGCGUUGGAGAAGGGACAUUCC [Chica Displaced 10 - Jieux - Exclusion 1] | – | – | 0.028 | 0.0364 |
| AAAAAACAUGAGGAUCACCCAUGUUAGGAUAUGCUAUGGAAAAUAAAAAUAAAACAUAGCAGAAGGAACAAAAA [Denovo 2] | – | – | 0.0186 | 0.0369 |
| AUAGGCCUAGGAUAUACAUGAGGAUCACCCAUGUUAAUAAUUCAAACAUGAUAAACGUGUAGAAGGAGGAAUAA [JR_Exc003_Sub302] | – | – | 0.0408 | 0.0653 |
| AAGAAGUCAGGAUAUACAUGAGGAUCACCCAUGUAAAAGAAAGAGGGAAAAGAGAAAAGUAGAAGGGACAAGAA [Arsinoe I] | – | – | 0.0291 | 0.0321 |
| AAUAAGAGAGGAUAUACAUAAUAAAAGAAAAGAAACAAAGAACAUGAGGAUCACCCAUGUAGAAGGCUCAAUAA [Sonbef] | – | – | 0.0219 | 0.0189 |
| AAGAUGUGAGGAUAUGCUUGUCGUCACAAAAGUGAUGACGAGCAGAAGGCACAUGAGGAUCACCCAUGUAAAGA [Opal 26] | – | – | 0.0901 | 0.147 |
| AAAUUGUCAGGAUAUGUAGCAAAAGGUGAUCAAAAAAAGCUACAGAAGGGACAUGAGGAUCACCCAUGUAAAAA [Ex4: 936] | – | – | 0.242 | 0.359 |
| GUGUACAGAGGAUAUACAUGAGCUAGGAAACUAGCAGGAUCACAUGAGGAUCACCCAUGUAGAAGGCUGUACAC [Ex2: 731] | – | – | 0.0425 | 0.0155 |
| GUGUACAGAGGAUAUACUGGAGCAUGGAAACAUGCAAGAUCACAUGAGGAUCACCCAUGUAGAAGGCUGUACAC [Ex2: 742] | – | – | 0.119 | 0.0218 |
| AUUCUACAUGAGGAUCACCCAUGUGAGGAUAUGCUAUACUAUUGUUGCAAUACUUAGAGCAGAAGGCACAUCGU [JR_EXc001_Sub801] | – | – | 0.0302 | 0.0662 |
| AAAUCGGCAGGAUAUACAUGAAAAUUAAAAAAAAAAAAAAAACAUGAGGAUCACCCAUGUAGAAGGGUCAAAAA [Exclusion 2 - Omei 3] | – | – | 0.0779 | 0.0752 |
| AAAAAGGCAGGAUAUACGAAACAGGGAAACCUGAAAGGGAAACAUGAGGAUCACCCAUGUAGAAGGGCCAAGAA [Clint Eastwood 64% 2] | – | – | 0.0483 | 0.082 |
| AAAACGGCAGGAUAUACAGUUGAGAACUAGACCGAAAAAAAACAUGAGGAUCACCCAUGUAGAAGGGCCAAAAA [Ex2 Malc#8] | – | – | 0.0284 | 0.0325 |
| AAGAACGGAGGAUAUACAAAAUAAAAGAAAAGAAAGAAAGAACAUGAGGAUCACCCAUGUAGAAGGCCGAAGAA [Sehetepibre Sewesekhtawy] | – | – | 0.0209 | 0.029 |
| AGCUAGACAGGAUAUACGUAAAUGUCGAAAGACGUAUAGGGACAUGAGGAUCACCCAUGUAGAAGGGUCUAGCA [Diamond 100] | – | – | 0.0227 | 0.0396 |
| UCACACCUAGGAUAUACAUGAGGAUCACCCAUGUGGCACUCCGCAGGCAGUGUUCCCAGUAGAAGGAGGACACG [Ricere] | – | – | 0.0278 | 0.0224 |
| GGGUCACAUGAGGAUCACCCAUGUAAGGAUAUGCUAGGGAUGGAAACCAUUCCGCAACGCAGAAGGUACUAAAG [Janelle Amethyst 18 Mod 12 - Jieux - Exclusion 1] | – | – | 0.0504 | 0.105 |
